Reference: patent US12138315 (Daiichi Sankyo, dated 2024)
Where a chain is given by its changes, count along the chain named. Values belong to the binder of their own block, whether it stands above or below them.

Biological target: T1, human CD37 protein (human, UniProt P11049 1-281)
T1 construct: Four-pass transmembrane tetraspanin
T1 sequence: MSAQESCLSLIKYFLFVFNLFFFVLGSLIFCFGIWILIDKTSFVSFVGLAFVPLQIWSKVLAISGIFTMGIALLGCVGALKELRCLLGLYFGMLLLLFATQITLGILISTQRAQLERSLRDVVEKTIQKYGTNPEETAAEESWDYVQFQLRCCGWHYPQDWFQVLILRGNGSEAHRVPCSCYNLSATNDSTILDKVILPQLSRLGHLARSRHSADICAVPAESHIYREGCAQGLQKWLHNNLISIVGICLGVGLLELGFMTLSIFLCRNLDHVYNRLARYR
Experiment: flow cytometry on OCI-LY7 cells, FITC anti-human IgG Fc secondary
Description: 4)-1 Evaluation of Binding Activity of Humanized Anti-CD37 Antibody-Drug Conjugate The binding activity of the four antibody-drug conjugates (clone names: hmAb-H11L11-DXd, hmAb-H541L11-DXd, hmAb-H551L11-DXd, and hmAb-H11aL11-DXd) produced in Example 2 was evaluated by flow cytometry. CD37-positive human diffuse large B-cell lymphoma cell line OCI-LY7 (DSMZ) cultured in IMDM medium supplemented with 20% FBS under conditions of 37° C. and 5% CO_2 were recovered and centrifuged. After removal of the supernatant, the cells were suspended by the addition of each of the four antibody-drug conjugates or a negative control antibody-drug conjugate (hmAb-IgG1-DXd) produced using human IgG at each concentration. The cells were left standing at 4° C. for 1 hour. The cells were washed twice with PBS supplemented with 5% FBS, and then suspended by the addition of FLUORESCEIN (FITC)-AffiniPure F(ab')2 Fragment Goat Anti-Human IgG, Fcγ Fragment Specific (Jackson ImmunoResearch Laboratories, Inc.) that had been 100-fold diluted with PBS supplemented with 5% FBS. The cells were left standing at 4° C. for 30 minutes. The cells were washed twice with PBS supplemented with 5% FBS, followed by detection using a flow cytometer (BD LSRFortessa TM X-20, BD Biosciences). The data was analyzed using FlowJo (Tree Star, Inc.). In FIG. 6, the abscissa depicts antibody concentration (μg/ml), and the ordinate depicts the amount of the antibody bound by MFI (mean fluorescence intensity).

B1: hmAb-H11L11-DXd (antibody, V domains shown)
VH: EVQLVQSGAEVKKPGASVKVSCKASGYSFTDYNMYWVRQAPGQSLEWMGYIDPYNGDTTYNQKFQGRVTITADTSTSTAYMELSSLRSEDTAVYYCARSPYGHYAMDYWGQGTLVTVSS
VL: DIQMTQSPSSLSASVGDRVTITCKASQDVSTAVDWYQQKPGKAPKLLINWASTRHTGVPSRFSGSGSGTDFTLTISSLQPEDFATYYCRQHYSTPFTFGQGTKVEIKR
modifications: drug linker on sulfhydryl groups of reduced interchain disulfide cysteines; positions not given; drug linker (maleimidocaproyl-GGFG-DXd, exatecan derivative) on sulfhydryl groups of reduced interchain disulfide cysteines by thioether bond; average number of conjugated drug molecules per antibody 7.4 to 7.7 (common procedure F); positions not given
notes: also called hmAb-H11L11-ADC
binding result: binds

B2: hmAb-H11L11 (antibody, human IgG1, kappa, V domains shown)
VH: B1 VH
VL: B1 VL
notes: Unconjugated humanized IgG1 kappa antibody derived from mouse HH1; also called anti-CD37 humanized antibody having hmAb-H11 as a heavy chain and hmAb-L11 as a light chain
binding result: binds

B3: hmAb-H541L11-DXd (antibody, human IgG1, kappa, V domains shown)
VH: B1 VH with I70M, A72R, T76I, S85R, E89D, L114T
VL: B1 VL
modifications: drug linker on sulfhydryl groups of reduced interchain disulfide cysteines; positions not given; drug linker (maleimidocaproyl-GGFG-DXd, exatecan derivative) on sulfhydryl groups of reduced interchain disulfide cysteines by thioether bond; average number of conjugated drug molecules per antibody 7.8 (common procedure F); positions not given
notes: also called hmAb-H541L11-ADC
binding result: binds

B4: hmAb-H11aL11-DXd (antibody, human IgG1, kappa, V domains shown)
VH: B1 VH with T74K, T76K
VL: B1 VL
modifications: drug linker on sulfhydryl groups of reduced interchain disulfide cysteines; positions not given; drug linker (maleimidocaproyl-GGFG-DXd, exatecan derivative) on sulfhydryl groups of reduced interchain disulfide cysteines by thioether bond; average number of conjugated drug molecules per antibody 7.6 (common procedure F); positions not given
notes: also called hmAb-H11aL11-ADC
binding result: binds

Results, then the binder that gave them:

binding result: binds
B5: hmAb-H551L11-DXd (antibody, human IgG1, kappa, V domains shown)
VH: B1 VH with I70M, A72R, T76S, S85R, E89D, L114T
VL: B1 VL
modifications: drug linker on sulfhydryl groups of reduced interchain disulfide cysteines; positions not given; drug linker (maleimidocaproyl-GGFG-DXd, exatecan derivative) on sulfhydryl groups of reduced interchain disulfide cysteines by thioether bond; average number of conjugated drug molecules per antibody 7.8 (common procedure F); positions not given
notes: also called hmAb-H551L11-ADC

binding result: binds
B6: hmAb-H11aL11 (antibody, human IgG1, kappa, V domains shown)
VH: B1 VH with T74K, T76K
VL: B1 VL
notes: Unconjugated humanized IgG1 kappa antibody; also called anti-CD37 humanized antibody having hmAb-H11a as a heavy chain and hmAb-L11 as a light chain

binding result: binds
B7: hmAb-H541L11 (antibody, human IgG1, kappa, V domains shown)
VH: B1 VH with I70M, A72R, T76I, S85R, E89D, L114T
VL: B1 VL
notes: Unconjugated humanized IgG1 kappa antibody; also called anti-CD37 humanized antibody having hmAb-H541 as a heavy chain and hmAb-L11 as a light chain

binding result: binds
B8: hmAb-H551L11 (antibody, human IgG1, kappa, V domains shown)
VH: B1 VH with I70M, A72R, T76S, S85R, E89D, L114T
VL: B1 VL
notes: Unconjugated humanized IgG1 kappa antibody; also called anti-CD37 humanized antibody having hmAb-H551 as a heavy chain and hmAb-L11 as a light chain
